# Assay results as given in the supplement of paper PMC7877785.
# ± gives the uncertainty stated by the source.
# Test: self-splicing fitness, log relative to wild type (ln ratio); higher = more splicing; Tetrahymena group I intron in knt gene, E. coli kanamycin selection, DiMSum; sequences stand for … in CUCUCU…GGAGGGAAAAGUUAUCAGGCAUGCACCUGGUAGCUAGUCUUUAAACCAAUAGAUUGCAUCGGUUUAAAAGGCAAGACCGUCAAAUUGCGGGAAAGGGGUCAACAGCCGUUCAGUACCAAGUCUCAGGGGAAACUUUGAGAUGGCCUUGCAAAGGGUAUGGUAAUAAGCUGACGGACAUGGUCCUAACCACGCAGCCAAGUCCUAAGUCAACAGAUCUUCUGUUGAUAUGGAUGCAGUUCACAGACUAAAUGUCGGUCGGGGAAGAUGUAUUCUUCUCAUAAGAUAUAGUCGGACCUCUCCUUAAUGGGAGCUAGCGGAUGAAGUGAUGCAACACUGGAGCCGCUGGGAACUAAUUUGUAUGCGAAAGUAUAUUGAUUAGUUUUGGAGUACUCGUGGUCG
# Outline: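 A randomised library covering all eight P1ex-region intron nucleotides was built with the intron in the knt kanamycin-resistance gene on pET-22b(+) and held in E. coli BL21(DE3). Cells were grown overnight at 37°C or 30°C on LB agar, with or without 25 μg/mL kanamycin, plus 100 μg/mL carbenicillin, 50 μM IPTG and 0.2% rhamnose, and pooled colonies were amplicon-sequenced on an Illumina HiSeq 2500. DiMSum fitness is the error-weighted combination of wild-type-normalised replicate fold changes, kanamycin versus none.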
Sequence,self-splicing fitness (ln) (30 °C),self-splicing fitness (ln) (37 °C)
GCUUAGCAAUAUUACGUUCC,-0.313 ± 0.19,-0.542 ± 0.23
UCGAAGCAAUAUUACGGUAC,-4.43 ± 0.39,
UUAAAGCAAUAUUACGAUUC,-1.07 ± 0.1,-0.514 ± 0.11
UGCCAGCAAUAUUACGCCCU,-1.49 ± 0.11,-0.167 ± 0.13
AACUAGCAAUAUUACGCCAU,-2.6 ± 0.15,-2.42 ± 0.18
GCCAAGCAAUAUUACGCCCU,-1.4 ± 0.13,-0.504 ± 0.16
ACUUAGCAAUAUUACGCGCG,-1.56 ± 0.11,-0.437 ± 0.12
AAUUAGCAAUAUUACGCCUG,-0.979 ± 0.14,-0.733 ± 0.21
CGAGAGCAAUAUUACGUGUA,-3.34 ± 0.22,-2.9 ± 0.23
CCAGAGCAAUAUUACGUUCG,-2.91 ± 0.17,-1.64 ± 0.17
UACCAGCAAUAUUACGCCGC,-2.89 ± 0.38,-2.37 ± 0.35
AUCGAGCAAUAUUACGGAUA,-3.67 ± 0.33,-1.92 ± 0.25
UUAUAGCAAUAUUACGGUGA,-0.606 ± 0.12,-0.405 ± 0.14
ACUCAGCAAUAUUACGGCAA,-1.24 ± 0.094,-0.795 ± 0.099
CUGGAGCAAUAUUACGCACG,-0.0736 ± 0.32,-1.08 ± 0.29
UUCAAGCAAUAUUACGCUGG,-2.29 ± 0.13,-3.05 ± 0.24
CCAAAGCAAUAUUACGGUUC,-2.91 ± 0.12,-2.34 ± 0.2
AUAUAGCAAUAUUACGCAUU,-3.04 ± 0.18,-1.42 ± 0.15
CCCAAGCAAUAUUACGAGCG,-2.62 ± 0.12,-2 ± 0.13
UAGCAGCAAUAUUACGUCUC,-1.96 ± 0.17,-0.915 ± 0.15
GACUAGCAAUAUUACGCUCC,-3.46 ± 0.47,
GAUUAGCAAUAUUACGAAAU,-2.4 ± 0.22,1.2 ± 0.2
UUCUAGCAAUAUUACGGGGA,-0.859 ± 0.21,-0.995 ± 0.21
UCCCAGCAAUAUUACGACAG,,-3.55 ± 0.37
CAUGAGCAAUAUUACGUAGA,-4.22 ± 0.27,-2.77 ± 0.21
CACUAGCAAUAUUACGCAUC,-4.23 ± 0.43,-3.53 ± 0.37

Sequence,self-splicing fitness (ln) (30 °C),self-splicing fitness (ln) (37 °C)
UAACAGCAAUAUUACGUAAC,-2.93 ± 0.17,-1.62 ± 0.16
GACCAGCAAUAUUACGAUCC,-1.93 ± 0.14,-1.27 ± 0.17
AUUAAGCAAUAUUACGUUUC,-3.77 ± 0.35,-1.65 ± 0.26
UAAUAGCAAUAUUACGAUAC,-3.78 ± 0.43,
CCCCAGCAAUAUUACGAGUU,-4.17 ± 0.18,-2.31 ± 0.17
CCGUAGCAAUAUUACGGGGA,-3.45 ± 0.25,-3.11 ± 0.25
UCAUAGCAAUAUUACGUGUG,-1.8 ± 0.068,-1.84 ± 0.075
UGCUAGCAAUAUUACGUCCC,-3.34 ± 0.18,-0.521 ± 0.12
GUCCAGCAAUAUUACGGUCG,-0.533 ± 0.071,-0.131 ± 0.097
AUGCAGCAAUAUUACGCGAC,-2.18 ± 0.17,-0.372 ± 0.17
CAAAAGCAAUAUUACGUACG,-0.125 ± 0.061,0.143 ± 0.07
GCGCAGCAAUAUUACGCGUC,-3.41 ± 0.16,-2.41 ± 0.2
GUACAGCAAUAUUACGUGCA,-3.96 ± 0.22,-2.17 ± 0.16
GUAAAGCAAUAUUACGGAAC,-1.56 ± 0.12,-1.57 ± 0.21
GGGCAGCAAUAUUACGAGCA,-1.98 ± 0.1,-1.37 ± 0.11
AUUCAGCAAUAUUACGUGGU,-3 ± 0.12,-0.786 ± 0.099
GGGUAGCAAUAUUACGUUUC,-2.16 ± 0.12,-0.68 ± 0.15
AACGAGCAAUAUUACGACGC,-2 ± 0.14,-0.785 ± 0.18
GCCGAGCAAUAUUACGUGUU,-2.22 ± 0.088,-1.66 ± 0.1
GCAAAGCAAUAUUACGAACG,-1.46 ± 0.077,-0.561 ± 0.11
UCUCAGCAAUAUUACGCCUC,-3.12 ± 0.27,-2.27 ± 0.29
GCAGAGCAAUAUUACGGGCG,-3.2 ± 0.17,-0.961 ± 0.14
AAAAAGCAAUAUUACGUGCC,-0.945 ± 0.11,-1.17 ± 0.12
UAGCAGCAAUAUUACGCGGA,-0.908 ± 0.079,-0.843 ± 0.082
UCUGAGCAAUAUUACGCGUG,-2.36 ± 0.16,-0.768 ± 0.11
GCUGAGCAAUAUUACGCCUC,-1.67 ± 0.42,-1.53 ± 0.49

Sequence,self-splicing fitness (ln) (30 °C),self-splicing fitness (ln) (37 °C)
CGUUAGCAAUAUUACGCACG,-1.99 ± 0.31,
GUAAAGCAAUAUUACGAAGG,-3.13 ± 0.13,-1.92 ± 0.17
AUCUAGCAAUAUUACGGAUC,-3.03 ± 0.17,-2.33 ± 0.24
UAAGAGCAAUAUUACGUAGA,-3.89 ± 0.23,-1.34 ± 0.28
CAGAAGCAAUAUUACGGCUG,-2.29 ± 0.19,-2.49 ± 0.23
CCGUAGCAAUAUUACGUUAA,-3.18 ± 0.4,-2.67 ± 0.31
UUCUAGCAAUAUUACGGCCU,-3.05 ± 0.38,
ACUGAGCAAUAUUACGCCCC,-2.6 ± 0.34,
AUAGAGCAAUAUUACGCAGU,-1.73 ± 0.16,-0.369 ± 0.19
CGUUAGCAAUAUUACGUUAA,-3.44 ± 0.23,-3.24 ± 0.28
GUACAGCAAUAUUACGGGGC,-3.74 ± 0.35,-2.77 ± 0.47
CAAUAGCAAUAUUACGGAUU,-3.94 ± 0.2,-3.55 ± 0.3
GCAUAGCAAUAUUACGGGCG,-1.84 ± 0.12,-1.09 ± 0.11
CGAAAGCAAUAUUACGAGGA,-3.36 ± 0.25,-1.13 ± 0.21
UUCCAGCAAUAUUACGCGCG,-0.776 ± 0.068,-0.688 ± 0.099
GGCUAGCAAUAUUACGUGUG,-0.503 ± 0.085,-0.362 ± 0.083
GAUCAGCAAUAUUACGCUGA,-3.83 ± 0.37,-1.33 ± 0.21
AGGCAGCAAUAUUACGCCUU,,-3.04 ± 0.27
CGUGAGCAAUAUUACGGUUU,-3.81 ± 0.18,-3.28 ± 0.22
ACUUAGCAAUAUUACGCUAU,-3.05 ± 0.24,-2.09 ± 0.23
GAUCAGCAAUAUUACGAACG,-0.118 ± 0.16,0.507 ± 0.17
AGCCAGCAAUAUUACGUAUC,-2.85 ± 0.15,-2.21 ± 0.23
UUCCAGCAAUAUUACGAAUC,-4.37 ± 0.31,-1.09 ± 0.41
AGUGAGCAAUAUUACGUCCA,-2.89 ± 0.36,-1 ± 0.27
AGAAAGCAAUAUUACGGGCC,-1.66 ± 0.14,-1.04 ± 0.13
CAACAGCAAUAUUACGUCAU,-3.92 ± 0.12,-1.86 ± 0.1
